From patent US20260240958

Tested on: LTRP5-ADD-ZIM3 (dCasX491 fused to DNMT3A ADD/CD, DNMT3L, ZIM3-KRAB) (synthetic construct)
Experiment: cell_activity
Conditions: HEK293T day 8; non-targeting control

Sequence of LTRP5-ADD-ZIM3 (dCasX491 fused to DNMT3A ADD/CD, DNMT3L, ZIM3-KRAB) (synthetic construct) (chain, as listed by the source): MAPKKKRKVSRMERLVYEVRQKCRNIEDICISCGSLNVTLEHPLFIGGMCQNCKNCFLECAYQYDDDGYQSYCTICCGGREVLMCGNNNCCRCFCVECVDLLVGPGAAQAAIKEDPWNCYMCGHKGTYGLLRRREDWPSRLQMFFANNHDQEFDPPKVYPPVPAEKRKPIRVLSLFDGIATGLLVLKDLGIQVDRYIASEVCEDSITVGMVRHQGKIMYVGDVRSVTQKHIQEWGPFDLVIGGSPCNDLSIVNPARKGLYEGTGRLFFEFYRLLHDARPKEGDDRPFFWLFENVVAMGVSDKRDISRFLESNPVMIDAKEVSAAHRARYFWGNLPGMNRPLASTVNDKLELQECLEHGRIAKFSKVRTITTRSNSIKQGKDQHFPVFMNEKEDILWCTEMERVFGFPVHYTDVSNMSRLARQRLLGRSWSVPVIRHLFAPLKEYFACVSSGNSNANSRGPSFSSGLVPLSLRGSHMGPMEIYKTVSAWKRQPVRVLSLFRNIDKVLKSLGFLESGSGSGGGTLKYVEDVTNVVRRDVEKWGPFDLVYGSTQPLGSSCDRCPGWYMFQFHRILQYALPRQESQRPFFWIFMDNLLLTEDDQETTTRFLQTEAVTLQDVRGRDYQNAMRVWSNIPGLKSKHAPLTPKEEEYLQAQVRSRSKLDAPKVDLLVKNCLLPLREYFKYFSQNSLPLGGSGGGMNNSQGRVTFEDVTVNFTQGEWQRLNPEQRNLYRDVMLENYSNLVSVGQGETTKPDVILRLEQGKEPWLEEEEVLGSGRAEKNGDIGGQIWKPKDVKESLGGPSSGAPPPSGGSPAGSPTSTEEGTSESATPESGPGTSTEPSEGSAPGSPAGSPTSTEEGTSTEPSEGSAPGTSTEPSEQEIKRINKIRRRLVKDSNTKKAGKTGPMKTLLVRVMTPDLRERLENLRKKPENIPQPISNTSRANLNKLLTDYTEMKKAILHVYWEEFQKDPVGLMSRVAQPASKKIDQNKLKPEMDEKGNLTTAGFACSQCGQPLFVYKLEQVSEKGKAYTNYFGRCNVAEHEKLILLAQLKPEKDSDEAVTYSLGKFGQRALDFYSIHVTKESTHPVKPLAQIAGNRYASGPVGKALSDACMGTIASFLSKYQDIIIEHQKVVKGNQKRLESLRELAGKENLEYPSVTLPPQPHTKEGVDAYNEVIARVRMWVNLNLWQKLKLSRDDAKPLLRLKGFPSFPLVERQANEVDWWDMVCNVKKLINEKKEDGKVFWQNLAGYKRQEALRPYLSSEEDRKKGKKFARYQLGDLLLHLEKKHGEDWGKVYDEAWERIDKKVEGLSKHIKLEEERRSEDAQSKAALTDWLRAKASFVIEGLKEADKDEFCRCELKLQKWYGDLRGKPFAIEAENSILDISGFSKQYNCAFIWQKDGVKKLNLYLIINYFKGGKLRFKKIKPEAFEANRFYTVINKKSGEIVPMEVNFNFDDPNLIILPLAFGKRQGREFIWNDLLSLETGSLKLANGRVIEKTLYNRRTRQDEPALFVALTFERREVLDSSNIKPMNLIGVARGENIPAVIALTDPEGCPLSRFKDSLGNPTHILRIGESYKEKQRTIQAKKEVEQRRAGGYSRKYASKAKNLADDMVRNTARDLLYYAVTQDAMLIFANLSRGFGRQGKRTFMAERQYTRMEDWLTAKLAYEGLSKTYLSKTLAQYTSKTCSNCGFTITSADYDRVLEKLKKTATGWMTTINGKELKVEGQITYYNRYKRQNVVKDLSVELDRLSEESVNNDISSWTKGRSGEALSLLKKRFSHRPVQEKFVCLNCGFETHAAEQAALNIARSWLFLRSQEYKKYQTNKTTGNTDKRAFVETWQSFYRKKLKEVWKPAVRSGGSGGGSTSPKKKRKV

non-targeting spacer gRNA ; human B2M locus
activity (% HLA-negative cells): 8.44
